Reference: publication PMC7093598

Columns and labels:
[1] = target: titin N2A construct(s), number of N2A-Us elements not stated for the experiment (human) (UniProt Q8WZ42)
[2] = target: titin N2A construct(s), number of N2A-Us elements not stated for the experiment (human) (UniProt Q8WZ42); remark: listed apart in the source

increase of the Ig domain unfolding force (F unfold, force peaks 1-4) with CARP, AFM force-extension curves at 400 nm/s [1]: 20 pN | unfolding rate constant α0 of the Ig domains in the absence of applied force with CARP, from the Bell fit of the force clamp data [2]: 0.43 s⁻¹ | unfolding rate α of the Ig domains with CARP, AFM force clamp at clamp forces of 100-150 pN; value printed at 100 pN (3.2 s^-1 without CARP) [2]: 2.4 s⁻¹
Substance: CARP (Cardiac Ankyrin Repeat Protein) 106-319, N-terminally truncated construct corresponding to the titin-binding region (from UniProt Q15327 106-319) (domain or fragment)
